Earlier results, collected in publication PMC4754043 (Human Molecular Genetics, 2015).

System: human transmitochondrial cybrid cells and yeast with mt-tRNA mutations
Conditions: human cybrids and yeast; ref [9],[10],[11]

B1: mt-ValRS: mt-valyl-tRNA synthetase (protein, UniProt Q5ST30 27-1063, looked up)
Valine--tRNA ligase, …: SVSTQSEPHGSPISRRNREAKQKRLREKQATLEAEIAGESKSPAESIKAWRPKELVLYEIPTKPGEKKDVSGPLPPAYSPRYVEAAWYPWWVREGFFKPEYQARLPQATGETFSMCIPPPNVTGSLHIGHALTVAIQDALVRWHRMRGDQVLWVPGSDHAGIATQAVVEKQLWKERGVRRHELSREAFLREVWQWKEAKGGEICEQLRALGASLDWDRECFTMDVGSSVAVTEAFVRLYKAGLLYRNHQLVNWSCALRSAISDIEVENRPLPGHTQLRLPGCPTPVSFGLLFSVAFPVDGEPDAEVVVGTTRPETLPGDVAVAVHPDDSRYTHLHGRQLRHPLMGQPLPLITDYAVQPHVGTGAVKVTPAHSPADAEMGARHGLSPLNVIAEDGTMTSLCGDWLQGLHRFVAREKIMSVLSEWGLFRGLQNHPMVLPICSRSGDVIEYLLKNQWFVRCQEMGARAAKAVESGALELSPSFHQKNWQHWFSHIGDWCVSRQLWWGHQIPAYLVVEDHAQGEEDCWVVGRSEAEAREVAAELTGRPGAELTLERDPDVLDTWFSSALFPFSALGWPQETPDLARFYPLSLLETGSDLLLFWVGRMVMLGTQLTGQLPFSKVLLHPMVRDRQGRKMSKSLGNVLDPRDIISGVEMQVLQEKLRSGNLDPAELAIVAAAQKKDFPHGIPECGTDALRFTLCSHGVQAGDLHLSVSEVQSCRHFCNKIWNALRFILNALGEKFVPQPAEELSPSSPMDAWILSRLALAAQECERGFLTRELSLVTHALHHFWLHNLCDVYLEAVKPVLWHSPRPLGPPQVLFSCADLGLRLLAPLMPFLAEELWQRLPPRPGCPPAPSISVAPYPSACSLEHWRQPELERRFSRVQEVVQVLRALRATYQLTKARPRVLLQSSEPGDQGLFEAFLEPLGTLGYCGAVGLLPPGAAAPSGWAQAPLSDTAQVYMELQGLVDPQIQLPLLAARRYKLQKQLDSLTARTPSEGEAGTQRQQKLSSLQLELSKLDKAASHLRQLMDEPPAPGSPEL
rescue of defects due to mutations in non-cognate as well as cognate mt-tRNAs: able to rescue
